Source: patent US6262024

Target: N-methyl-D-aspartate (NMDA) receptor (rat)

neuron regulatory factor (NRF) from rat
anterior thalamic neuron survival over controls: 700%
